Laboratory results published in PMC10545799.

Columns and labels:
[1] = target: dsc-Agg5AB (chimeric donor strand complemented construct of minor pilin subunit Agg3B and major pilin subunit Agg5A) (enteroaggregative E. coli); assay: SAXS; engineered subunit samples (monomer fractions of the gel filtration) in solution, 10 °C, dilutions 1:1 and 1:2; molecular weight and aggregation number from Guinier analysis; self-association
[2] = target: dsc-Agg5A (donor strand complemented major pilin subunit Agg5A of AAF/V) (enteroaggregative E. coli); assay: as above

Row | Substance | stoichiometry N [1] | stoichiometry N [2]
1 | dsc-Agg5AB (chimeric donor strand complemented construct of minor pilin subunit Agg3B and major pilin subunit Agg5A) | 6.8 | 
2 | dsc-Agg5A (donor strand complemented major pilin subunit Agg5A of AAF/V) (domain or fragment) |  | 2
